# Source: patent US20020031803A1
# How the values were obtained:
# [1] = target: human RB protein (human) (UniProt P06400)
# [2] = target: human p107 (human) (UniProt P28749)
# Sequence of UniProt P28749 (P28749 whole entry): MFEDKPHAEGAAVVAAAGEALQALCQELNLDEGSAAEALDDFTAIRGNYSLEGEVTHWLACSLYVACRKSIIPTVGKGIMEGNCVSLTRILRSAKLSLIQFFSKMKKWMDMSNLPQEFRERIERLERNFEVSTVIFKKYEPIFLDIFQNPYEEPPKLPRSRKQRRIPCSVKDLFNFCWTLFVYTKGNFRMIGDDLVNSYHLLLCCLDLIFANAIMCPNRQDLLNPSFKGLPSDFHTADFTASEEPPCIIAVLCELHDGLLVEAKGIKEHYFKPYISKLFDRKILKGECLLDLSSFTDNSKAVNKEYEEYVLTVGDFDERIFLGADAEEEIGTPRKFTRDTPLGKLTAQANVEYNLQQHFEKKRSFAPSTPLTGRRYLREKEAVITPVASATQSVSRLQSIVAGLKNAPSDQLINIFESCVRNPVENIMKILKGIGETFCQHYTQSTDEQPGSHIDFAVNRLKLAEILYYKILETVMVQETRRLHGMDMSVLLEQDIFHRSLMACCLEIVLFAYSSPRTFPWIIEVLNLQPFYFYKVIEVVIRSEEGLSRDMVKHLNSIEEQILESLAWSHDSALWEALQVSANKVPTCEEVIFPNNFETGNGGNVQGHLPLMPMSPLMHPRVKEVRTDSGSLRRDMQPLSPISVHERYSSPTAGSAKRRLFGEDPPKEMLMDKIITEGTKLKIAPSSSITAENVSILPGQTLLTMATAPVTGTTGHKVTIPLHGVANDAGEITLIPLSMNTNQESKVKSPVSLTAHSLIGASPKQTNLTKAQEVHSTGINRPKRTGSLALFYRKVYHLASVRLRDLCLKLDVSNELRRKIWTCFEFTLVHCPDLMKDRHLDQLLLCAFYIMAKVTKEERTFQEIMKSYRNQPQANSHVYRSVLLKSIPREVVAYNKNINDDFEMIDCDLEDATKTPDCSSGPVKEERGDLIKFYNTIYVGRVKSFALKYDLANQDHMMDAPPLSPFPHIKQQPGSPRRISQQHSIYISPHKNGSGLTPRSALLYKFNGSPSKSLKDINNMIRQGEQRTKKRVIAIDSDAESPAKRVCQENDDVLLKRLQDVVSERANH
# Sequence of UniProt P06400 (P06400 whole entry): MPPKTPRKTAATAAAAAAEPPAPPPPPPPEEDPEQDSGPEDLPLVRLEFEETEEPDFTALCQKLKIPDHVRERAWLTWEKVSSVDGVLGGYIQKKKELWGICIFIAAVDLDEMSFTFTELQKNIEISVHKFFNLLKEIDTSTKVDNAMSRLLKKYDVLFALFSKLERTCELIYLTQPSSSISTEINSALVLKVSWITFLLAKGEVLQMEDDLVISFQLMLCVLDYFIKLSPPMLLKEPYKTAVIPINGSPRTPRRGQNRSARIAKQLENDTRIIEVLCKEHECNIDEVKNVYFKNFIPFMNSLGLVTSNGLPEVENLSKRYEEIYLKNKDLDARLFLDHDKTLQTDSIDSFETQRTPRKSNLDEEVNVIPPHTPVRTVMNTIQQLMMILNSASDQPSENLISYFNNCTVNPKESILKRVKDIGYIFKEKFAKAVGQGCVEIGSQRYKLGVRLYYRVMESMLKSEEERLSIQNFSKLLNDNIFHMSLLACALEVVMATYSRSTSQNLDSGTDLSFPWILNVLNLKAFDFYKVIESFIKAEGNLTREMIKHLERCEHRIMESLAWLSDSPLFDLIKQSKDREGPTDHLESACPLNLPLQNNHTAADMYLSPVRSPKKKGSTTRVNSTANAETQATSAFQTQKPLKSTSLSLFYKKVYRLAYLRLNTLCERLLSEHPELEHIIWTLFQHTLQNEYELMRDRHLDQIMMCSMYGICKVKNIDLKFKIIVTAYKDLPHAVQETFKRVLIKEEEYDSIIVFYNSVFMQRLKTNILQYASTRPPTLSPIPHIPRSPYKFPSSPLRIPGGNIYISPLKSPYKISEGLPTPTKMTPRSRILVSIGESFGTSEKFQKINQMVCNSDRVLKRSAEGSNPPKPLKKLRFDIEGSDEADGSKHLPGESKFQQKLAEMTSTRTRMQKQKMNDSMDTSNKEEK
Substance,"Observed signal compared to T, % [1]","Observed signal compared to T, % [2]"
107-T mutant SV40 large T antigen (lysine for glutamic acid at codon 107) (from UniProt P03070 1-708) (other; other documents disagree on this pair),0.03%,0%
wild-type SV40 large T antigen (from UniProt P03070 1-708) (other; other documents disagree on this pair),100%,100%
